Earlier results on one molecule are cited in US20180296542A1, “IMINOSUGARS FOR IMPROVING BONE MINERAL DENSITY IN BONE DISEASE” (Saint Louis University, priority 2015, published 2018).

This data set relates to Akp2^−/− mice. The settings on record: cited from earlier work.

B1: untagged, native human TNSALP: untagged, native human tissue nonspecific alkaline phosphatase used for ERT in Akp2−/− mice (protein, UniProt P05186 18-501, looked up)
Alkaline phosphatase, …: LVPEKEKDPKYWRDQAQETLKYALELQKLNTNVAKNVIMFLGDGMGVSTVTAARILKGQLHHNPGEETRLEMDKFPFVALSKTYNTNAQVPDSAGTATAYLCGVKANEGTVGVSAATERSRCNTTQGNEVTSILRWAKDAGKSVGIVTTTRVNHATPSAAYAHSADRDWYSDNEMPPEALSQGCKDIAYQLMHNIRDIDVIMGGGRKYMYPKNKTDVEYESDEKARGTRLDGLDLVDTWKSFKPRYKHSHFIWNRTELLTLDPHNVDYLLGLFEPGDMQYELNRNNVTDPSLSEMVVVAIQILRKNPKGFFLLVEGGRIDHGHHEGKAKQALHEAVEMDRAIGQAGSLTSSEDTLTVVTADHSHVFTFGGYTPRGNSIFGLAPMLSDTDKKPFTAILYGNGPGYKVVGGERENVSMVDYAHNNYQAQSAVPLRHETHGGEDVAVFSKGPMAHLLHGVHEQNYVPHVMAYAACIGANLGHCAPAS
As to B1, the “Growth and fertility compared to untreated knock-out animals” value was “better growth and normal fertility”; the “Length of life compared to untreated knock-out animals” value is reported as “longer lives”. Moreover, the “Bone findings after 6 months” value (after 6 months) is “hypomineralization and abnormal proliferative chondrocytes presented”.
